The values that follow come from paper PMC5586252 (2017).

In one test the target is B′α regulatory subunit (UniProt Q15172 1-486). Nature of the test: BLI. For orientation: Biolayer interferometry detects binding as a change in optical thickness at a sensor tip.
Test [1] deals with T1, B′γ1 regulatory subunit (UniProt Q13362-2 1-449). Nature of the test: BLI.
A further test addresses PP2A-B′γ1 holoenzyme (UniProt P30153 1-589; P67775 1-309; Q13362-2 1-449). Nature of the test: BLI.
In test [2] the target is T1, B′γ1 regulatory subunit. In words: ITC.

Where no end group is shown, it is not given here.

Chain of PP2A-B′γ1 holoenzyme (P30153 whole entry, chain 1 of 3, other chains not shown): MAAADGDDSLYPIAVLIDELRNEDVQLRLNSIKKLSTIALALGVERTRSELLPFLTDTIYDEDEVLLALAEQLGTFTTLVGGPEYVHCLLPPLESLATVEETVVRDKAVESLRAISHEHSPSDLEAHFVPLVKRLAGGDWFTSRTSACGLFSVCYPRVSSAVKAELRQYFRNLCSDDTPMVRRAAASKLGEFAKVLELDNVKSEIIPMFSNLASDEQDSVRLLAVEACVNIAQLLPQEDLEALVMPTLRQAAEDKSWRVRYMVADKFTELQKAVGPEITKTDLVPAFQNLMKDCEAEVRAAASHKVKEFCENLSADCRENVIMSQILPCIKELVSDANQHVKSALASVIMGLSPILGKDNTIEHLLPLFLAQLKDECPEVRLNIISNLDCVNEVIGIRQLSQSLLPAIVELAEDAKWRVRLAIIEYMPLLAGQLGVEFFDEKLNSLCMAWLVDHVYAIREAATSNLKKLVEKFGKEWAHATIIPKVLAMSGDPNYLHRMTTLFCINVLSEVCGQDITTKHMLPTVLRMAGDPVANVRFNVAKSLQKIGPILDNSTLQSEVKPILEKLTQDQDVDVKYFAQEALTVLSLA
Chain of PP2A-B′γ1 holoenzyme (P67775 whole entry, chain 2 of 3, other chains not shown): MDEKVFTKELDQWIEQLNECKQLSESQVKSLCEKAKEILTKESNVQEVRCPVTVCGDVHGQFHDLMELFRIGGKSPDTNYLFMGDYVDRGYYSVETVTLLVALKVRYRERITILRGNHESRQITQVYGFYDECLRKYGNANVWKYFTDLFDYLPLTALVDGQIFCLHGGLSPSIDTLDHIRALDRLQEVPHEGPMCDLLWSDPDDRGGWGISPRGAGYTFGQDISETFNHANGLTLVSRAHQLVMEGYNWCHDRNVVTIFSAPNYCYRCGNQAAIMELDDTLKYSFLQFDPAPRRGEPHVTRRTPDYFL
Chain of B′α regulatory subunit (Q15172 whole entry): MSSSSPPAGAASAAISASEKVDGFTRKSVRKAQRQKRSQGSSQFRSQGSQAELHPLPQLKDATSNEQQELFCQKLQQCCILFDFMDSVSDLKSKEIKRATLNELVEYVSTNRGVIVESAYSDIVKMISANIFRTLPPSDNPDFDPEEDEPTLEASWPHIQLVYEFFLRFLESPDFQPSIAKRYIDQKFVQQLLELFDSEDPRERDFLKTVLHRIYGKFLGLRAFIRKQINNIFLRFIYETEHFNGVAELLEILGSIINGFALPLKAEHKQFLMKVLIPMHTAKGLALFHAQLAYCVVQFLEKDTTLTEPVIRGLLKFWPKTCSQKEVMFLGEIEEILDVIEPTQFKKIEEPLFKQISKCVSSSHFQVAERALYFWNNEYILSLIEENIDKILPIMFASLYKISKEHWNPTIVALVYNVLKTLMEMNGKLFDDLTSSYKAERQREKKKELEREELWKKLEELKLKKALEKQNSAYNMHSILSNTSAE

As a reminder, the Kd is a measure of binding affinity in units of concentration. A high value points to weaker binding. For the molecule HVLYPIPESSSDSPLA [GST-tagged STON1 peptide (B′-binding motif)], the Kd with B′α regulatory subunit is 11800 nM; in the test with B′γ1 regulatory subunit [1], 3000 nM.

In the case of FQHNRKLESVAEEHEI [GST-tagged KIAA1524 (CIP2A) peptide (B′-binding motif)], the figures for the dissociation constant (Kd) with B′α regulatory subunit, with PP2A-B′γ1 holoenzyme and with B′γ1 regulatory subunit [1] were 330 nM, 310 nM and 121 nM, respectively.

YQPLECIVEETEGKLN (not fully specified) [GST-tagged ANKHD1 peptide (B′-binding motif)]: the dissociation constant Kd with B′α regulatory subunit turned out to be 1090 nM; with PP2A-B′γ1 holoenzyme, 320 nM; with B′γ1 regulatory subunit [1], 2100 nM.

For IKKLSPIIEDSREATH [GST-tagged BUB1B peptide (B′-binding motif)], the results for the Kd with B′α regulatory subunit, with PP2A-B′γ1 holoenzyme and with B′γ1 regulatory subunit [1] were 226 nM, 34 nM and 43 nM, respectively.

Turning to QNQFSEHDKTLYRIPE [GST-tagged TJP1 peptide (B′-binding motif)], the dissociation constant Kd with B′α regulatory subunit stood at 490 nM; with B′γ1 regulatory subunit [1] it was 161 nM.

On to LETIPESEPSGMNRIL [GST-tagged DENND2C peptide (B′-binding motif)], for which the Kd with PP2A-B′γ1 holoenzyme worked out at 221 nM; in the test with B′γ1 regulatory subunit [1], 530 nM.

Consider KLPHVLSSIAEEEHHL [GST-tagged SYT16 peptide (B′-binding motif)], for which the Kd with B′α regulatory subunit turned out to be 197 nM; with PP2A-B′γ1 holoenzyme, 121 nM; in the test with B′γ1 regulatory subunit [1], 340 nM.

For the molecule LSTIDEEGE [Cyk4 S149E/S151E peptide (synthetic, phosphomimetic)], the Kd in the test with B′γ1 regulatory subunit [2] was found to be 1300 nM.

B1: native Cyk4 peptide (synthetic) (peptide)
chain: LSTIDESGS
modifications: synthetic peptide; exact ends and termini not given, the printed motif 143-LSTIDESGS-151 is used as the core
B1: the Kd with B′γ1 regulatory subunit [2] amounted to 22700 nM.

In the test with B′γ1 regulatory subunit [2], NKRLSTIDEEGS [Cyk4 peptide S149E] yielded a dissociation constant Kd of 1590 nM.

On to LSSIPEASEYDWRNYQ [GST-tagged C3orf67 peptide (B′-binding motif)], for which the dissociation constant (Kd) was 450 nM with B′α regulatory subunit, 43 nM with PP2A-B′γ1 holoenzyme and 62 nM with B′γ1 regulatory subunit [1].
